Experimental findings from the RNAGym collection of RNA variant scans (doi:10.1073/pnas.2313332121) are described below.

Sequences and labels used below:
B1: TPR t1 (parent)
chain: GACCAAUCUGCCCUCAGAGCUCGAGAACAUCUUCGGAUGCAGAGGAGGCAGGCUUCGGUGGCGCGAUAGCGCCAACGUCCUCAACCUCCAAUGCAUCCCACCACAUGAUGAUGCCUGAAGAGCCUUGGUUUUUUG

The data set covers variants of B1. As to the kind of experiment: polymerase ribozyme fitness, log enrichment relative to wild type (log ratio); higher = more active; in vitro selection for triplet polymerase activity. In outline:
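Input and output libraries were sequenced on Illumina after a single in vitro selection round, run in triplicate on PCR-built, transcribed mutant libraries of each subunit of a heterodimeric triplet polymerase ribozyme. Selection annealed libraries to a biotinylated primer, the partner subunit and triplets, incubated them frozen at −7 °C, then gel-excised extended constructs for streptavidin-bead capture and RT-PCR. Genotypes with ≥10 input reads and ≥1 read per output were kept. Fitness is the logarithm, taken in base 2, of genotype enrichment divided by wild-type enrichment, using inverse-variance-weighted replicate averages.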
GACCAAUCUGCCCUCAGAGCUCGAGAACAUCUUCGGAUGCAGAGGAGGCAGGCUUCGGUGGCGCGAUAGCGGCAACGUCCUCGACCUCCAAUGCAUCCCACCACAUGAUGAUGCCUGAAGAGCCUUGGUUUUUUG [C72G A83G]: the “polymerase ribozyme fitness (log ratio)” value is -0.0856. The result for GACCAACCUGCCCUCAGAGCUCGAGAACAUCUUCGGAUGCAGAGGAGGCAGGCUUCAGUGGCGCGAUAGCGCCAACGUCCUCAACCUCCAAUGCAUCCCACCACAUGAUGAUGCCUGAAGAGCCUUGGUUUUUUG [U7C G57A] reads -0.108; that for GACCAAUCUGCCCUCAGAGCUCGAGAACAUCUUCGGAUGCAGAUGAGGACGGCUUCGGUGGCGCGAUAGCGACAACGUCCUCAACCUCCAAUGCAUCCCACCACAUGAUGAUGCCUGAAGAGCCUUGGUUUUUUG [G44U C49A A50C C72A], -1.95; that for GACCAAUCUGCCCUCAGAGCUCGAGAAUAUCUUCGGAUGCAGAGGAGGCAGCCUUGGGUGGCGCGAUAGCGCCAACGUCCUCAACCUCCAAUGCAUCCCACCACAUGAUGAUGCCUGAAGAGCCUUGGUUUUUUG [C28U G52C C56G], -3.11. For GACCAAUCUGCCCUCAGAGCUCGAGAACAUCUUCGGAUGCAGAGGAGGCAGGCUUCGGUCGCGCGAUAGCGCCAACGUCCUAAACCUCCAAUGCAUCCCACCACGUGAUGAUGCCUGAAGAGCCUUGGUUAUUUG [G60C C82A A105G U131A] the value was -4.31; for GACCAAUCUGCCCUCAGAGCUCGAGAACAUCUUCGGAUGCAGAGGAGGCAGGCUUCGGUGGCGAGAUAGCGCCAACGUCCUCAACCUCCAAUGCAGCCCACCACAUGAUGAUGCCUGAAGAGUCUUGGUUUUUUG [C64A U96G C123U], -6.2; for GACCAAUCUGCCCUCAGAGCUCGAGAACAUCUUCGGAUGCAGAGGAGGCAGGCUUCGGUGUCGCGAUAGCGCCAACGUCCUCAACCUCCAAUGCAUCCCACCACAUGAUGAUGCCUGAAGAGCCUUGGUUUUAUG [G61U U133A], -0.172. For GACCAAUCUGCCCUUAGAGCUCGAGAACAUCUUCGGAUGCAGAGGAGGCAGGCUUCGGUGGCGCGAUAGCGCCAACGUCCUCAACCUCCAAUGCAUCCCACCACAUGAUGAUGCCUGAAGAGCCUUGGCUUUUUG [C15U U129C] the value was -1.86; for GACCAAUCUGCCUUCAGAGCUCGAGAACAUCUUCGGAUGCAGAGGAGGCAGGCUUCGGUGGCGCGAUAGCUCCAACGGCCUCAACCUCCAAUGCAUCCCACCACAUGAUGAUGCCUGAAGAGCCUUGGUUUUGUG [C13U G71U U78G U133G], -0.454.

For the variant GACCAAUCUGCCCUCAGAGCUCGAGAACAUCUUCGGAUGCAGAGGAGGCAGGCUUGGGUGGCGCGAUAUCGCCAACGUCCUCAACCUCCAAUGCAUCCCACCACAUGAUGAUGCCUGAAGAGCUUUGGUUUUUUG [C56G G69U C124U], the “polymerase ribozyme fitness (log ratio)” value came out at 0.715. For GACCAAUCUGCCCCCAGAGCUCGAGAACAUCUUCGGAUGCACAGGAGGCAGGCUUCGGUGGCGCGAUAGCGCCAACGUCCUCAACCUCCAAGGCAUCCCACCACAUGAUGAUGCCUGAAGAGCCUUGGUUUUUUG [U14C G42C U92G] the value was -4.23; for GACCAAUCUGCACUCAGAGCUCGAGAACAUCUUCGGAUGCAGAGGAGGCAGGCUUCGGUGGCGCGAUAGCGCCAACGUCCUCAACCUCCAAUGCAUCCCACCACAUGAUGAUGCCUGAAGAGACUUGGUUUUUUG [C12A C123A], 0.369; for GACCAAUCUGCCCUCAGAGCUCGAGAACAUCUUCGGAUGCAGAGGCGGCAGUCUUCGGUGGCGCGAUAGCGCCAACGUCCUCAACCUACAAUGCAUCCCACCACAUGAUAAUGCCUGGAGAGCCUCGGUUUUUUG [A46C G52U C88A G110A A118G U126C], -3.39. Regarding GACCUAUCUGCCCUCAGAGCUCGAGAACAUCUUCGGAUGCAGAGGAGGCAGGCUUCGGUGGCGCGAUAGCGCCAACGUCCUCUACCUCCAAUGCAUCCCACCACAUGAUGAUGCCUGAAUAGCCUUGGCUUUUUG [A5U A83U G120U U129C], the “polymerase ribozyme fitness (log ratio)” value is -1.35.

As to GACCAAUCUGCCCUCAGAACUCGAGAACAUCUUCGGAUGCAUAGGAGGCAGGCUUCGGUGGCGCGAUAGCUCCAACGUCCUCAACCUCCAAUGCAUCCCACCACAUGAUGAUGCCUGAAGAACCUUGGUUUUUUG [G19A G42U G71U G122A], the “polymerase ribozyme fitness (log ratio)” value was -3.83.

Take GACCAAUCUGCCCUCAGAGCUCGAGAACAUCUUCGGAUGCAGAGGAGGCAGUCUUCGGUGGCGCGAUAGCGCCAACCUCCUCAACCUCCAAUGCAUCCCACCACAUGAUGAUGCCUGAAGAGCCUUGGUUUUUUG [G52U G77C]: the “polymerase ribozyme fitness (log ratio)” value is -0.813. As to GACCAAUCUGCCCUCAGAGCUGGAGAACAUCUUCGGAUGCACAGGAGGCAGGCUUCGGUGGCGCGAUAGCGCCAACGUCCUCAACCUCCAAUGCAUCCCACCACAUGAUGAUGCUUGAAGAGCCUUGGUUUUUUG [C22G G42C C115U], the “polymerase ribozyme fitness (log ratio)” value is -3.85. Take GACCAAUCUGCCCUCAGAGCUCGAGAACAUCUUCGGAUGCAGAGGAGGCAGGCUUCGGUGGCGCGAUAGCGGCAACGUCCUCAACCUCCAAUGCAUCCCACCACAUGAUGAUGCCUGAAGAGCCUUGGAUUUUUG [C72G U129A]: the “polymerase ribozyme fitness (log ratio)” value is -1.02.

On to GACCAAUCUGCCGUCAGAGCUCGAGAACAUCUUCGGAUGCAGAGGAGGCAGGCUUGGGUGGCGCGAUAGCGCCAACGUCCUCAACGUCCAAUGCAUCACAAUACAUGAUGAUACCUGAAGAGCCUUGGUUUUUUG [C13G C56G C86G C98A C101A C102U G113A], for which the “polymerase ribozyme fitness (log ratio)” value was -6.46. Turning to GACCAAUCUGCCCUCAGAGCUCGAGAACAUCUUCGUAUGCAGAGGAGGCAGGCUUCGGUGGCGCGAUGGCGCCAACGUCCUCAACCUCCAAUGCAUCCCACCACAUGAUGAUGCCUGAAGAGCCUUGGUUUUUUG [G36U A68G], the “polymerase ribozyme fitness (log ratio)” value was -3.62. In the case of GACCAAUCUGCCCUCAGAGCUCGAGAACAUCUUCGGAUGUAGAGGAGGCAGGCUUCGGUGGCGCGAUAGCUCCAACGUCCUCAACCUCCAAAGCAUCCCACCACAUGAUGAUGCCUGAAGAGCCUUGGUUUUUUG [C40U G71U U92A], the “polymerase ribozyme fitness (log ratio)” value was -5.4.
